Data set [1] deals with T1, Fc fragment below the hinge region containing no modification (WT-Fc fragment, human IgG1, SEQ ID NO: 62) (human, UniProt P01857 104-328 = IgG part).
T1 construct: Unmodified IgG1 Fc fragment coexpressed with each modified full-length heavy chain and the light chain; Two copies in the Fc homodimer, one in the heteromultimer
Nature of the data set: SEC peak area ratio after coexpression of full-length heavy chain, light chain and Fc fragment.

Data set [2] concerns the molecule itself. Nature of the data set: SEC area ratio of heavy chain homodimer; co-expressed with Fc fragment SEQ ID NO 62.
Data set [3] concerns the molecule itself. Briefly: SEC area ratio of heavy chain homodimer; co-expressed with Fc fragment SEQ ID NO 102.
Data set [4] deals with the molecule itself. Nature of the data set: SEC peak area ratio; full-length heavy chain, light chain and VHH-Fc coexpressed in Expi293F, affinity purified.

B1: Full-length human IgG1 heavy chain with T366Y/L368T/Y407A (SEQ ID NO: 555) expressed with light chain SEQ ID NO: 61 (Sample No. 759) (antibody)
heavy: QVQLQESGPGLVRPSQTLSLTCTVSGYSITSDHAWSWVRQPPGRGLEWIGYISYSGITTYNPSLKSRVTMLRDTSKNQFSLRLSSVTAADTAVYYCARSLARTTAMDYWGQGSLVTVSSASTKGPSVFPLAPSSKSTSGGTAALGCLVKDYFPEPVTVSWNSGALTSGVHTFPAVLQSSGLYSLSSVVTVPSSSLGTQTYICNVNHKPSNTKVDKRVEPKSCDKTHTCPPCPAPELLGGPSVFLFPPKPKDTLMISRTPEVTCVVVDVSHEDPEVKFNWYVDGVEVHNAKTKPREEQYNSTYRVVSVLTVLHQDWLNGKEYKCKVSNKALPAPIEKTISKAKGQPREPQVYTLPPSREEMTKNQVSLYCTVKGFYPSDIAVEWESNGQPENNYKTTPPVLDSDGSFFLASKLTVDKSRWQQGNVFSCSVMHEALHNHYTQKSLSLSP
light: not shown
notes: also called Sample No. 1145
For B1, the “Heteromultimer (%)” value in data set [1] came to 3.6%.

B2: IgG4 full-length heavy chain with Q347R/K360E/D399V/F405T/R409W (SEQ ID NO: 95) with light chain (SEQ ID NO: 61) (antibody)
heavy: QVQLQESGPGLVRPSQTLSLTCTVSGYSITSDHAWSWVRQPPGRGLEWIGYISYSGITTYNPSLKSRVTMLRDTSKNQFSLRLSSVTAADTAVYYCARSLARTTAMDYWGQGSLVTVSSASTKGPSVFPLAPCSRSTSESTAALGCLVKDYFPEPVTVSWNSGALTSGVHTFPAVLQSSGLYSLSSVVTVPSSSLGTKTYTCNVDHKPSNTKVDKRVESKYGPPCPPCPAPEFLGGPSVFLFPPKPKDTLMISRTPEVTCVVVDVSQEDPEVQFNWYVDGVEVHNAKTKPREEQFNSTYRVVSVLTVLHQDWLNGKEYKCKVSNKGLPSSIEKTISKAKGQPREPRVYTLPPSQEEMTENQVSLTCLVKGFYPSDIAVEWESNGQPENNYKTTPPVLVSDGSFTLYSWLTVDKSRWQEGNVFSCSVMHEALHNHYTQKSLSLSL
light: not shown
With B2, the figures for the “Homo full-length heavy chain (%)” value in data set [2] and in data set [3] were 58.6% and 66.8%, respectively.

B3: IgG2 full-length heavy chain with K392L/T394W/F405A/Y407V (SEQ ID NO: 90) with light chain (SEQ ID NO: 61) (antibody)
heavy: QVQLQESGPGLVRPSQTLSLTCTVSGYSITSDHAWSWVRQPPGRGLEWIGYISYSGITTYNPSLKSRVTMLRDTSKNQFSLRLSSVTAADTAVYYCARSLARTTAMDYWGQGSLVTVSSASTKGPSVFPLAPCSRSTSESTAALGCLVKDYFPEPVTVSWNSGALTSGVHTFPAVLQSSGLYSLSSVVTVPSSNFGTQTYTCNVDHKPSNTKVDKTVERKCCVECPPCPAPPVAGPSVFLFPPKPKDTLMISRTPEVTCVVVDVSHEDPEVQFNWYVDGVEVHNAKTKPREEQFNSTFRVVSVLTVVHQDWLNGKEYKCKVSNKGLPAPIEKTISKTKGQPREPQVYTLPPSREEMTKNQVSLTCLVKGFYPSDIAVEWESNGQPENNYLTWPPMLDSDGSFALVSKLTVDKSRWQQGNVFSCSVMHEALHNHYTQKSLSLSP
light: not shown
B3: the “Homo full-length heavy chain (%)” value in data set [2] was determined as 48.8%; in data set [3] it was 66.3%.

B4: IgG2 full-length heavy chain with Q347R/K360E/D399V/F405T/K409W (SEQ ID NO: 89) with light chain (SEQ ID NO: 61) (antibody)
heavy: QVQLQESGPGLVRPSQTLSLTCTVSGYSITSDHAWSWVRQPPGRGLEWIGYISYSGITTYNPSLKSRVTMLRDTSKNQFSLRLSSVTAADTAVYYCARSLARTTAMDYWGQGSLVTVSSASTKGPSVFPLAPCSRSTSESTAALGCLVKDYFPEPVTVSWNSGALTSGVHTFPAVLQSSGLYSLSSVVTVPSSNFGTQTYTCNVDHKPSNTKVDKTVERKCCVECPPCPAPPVAGPSVFLFPPKPKDTLMISRTPEVTCVVVDVSHEDPEVQFNWYVDGVEVHNAKTKPREEQFNSTFRVVSVLTVVHQDWLNGKEYKCKVSNKGLPAPIEKTISKTKGQPREPRVYTLPPSREEMTENQVSLTCLVKGFYPSDIAVEWESNGQPENNYKTTPPMLVSDGSFTLYSWLTVDKSRWQQGNVFSCSVMHEALHNHYTQKSLSLSP
light: not shown
Consider B4, for which the “Homo full-length heavy chain (%)” value in data set [2] was 55.9%; in data set [3] it was 66.8%.

B5: IgG2 full-length heavy chain with T366W/L368A/Y407V (SEQ ID NO: 88) with light chain (SEQ ID NO: 61) (antibody)
heavy: QVQLQESGPGLVRPSQTLSLTCTVSGYSITSDHAWSWVRQPPGRGLEWIGYISYSGITTYNPSLKSRVTMLRDTSKNQFSLRLSSVTAADTAVYYCARSLARTTAMDYWGQGSLVTVSSASTKGPSVFPLAPCSRSTSESTAALGCLVKDYFPEPVTVSWNSGALTSGVHTFPAVLQSSGLYSLSSVVTVPSSNFGTQTYTCNVDHKPSNTKVDKTVERKCCVECPPCPAPPVAGPSVFLFPPKPKDTLMISRTPEVTCVVVDVSHEDPEVQFNWYVDGVEVHNAKTKPREEQFNSTFRVVSVLTVVHQDWLNGKEYKCKVSNKGLPAPIEKTISKTKGQPREPQVYTLPPSREEMTKNQVSLWCAVKGFYPSDIAVEWESNGQPENNYKTTPPMLDSDGSFFLVSKLTVDKSRWQQGNVFSCSVMHEALHNHYTQKSLSLSP
light: not shown
For the molecule B5, the “Homo full-length heavy chain (%)” value is 48.2% in data set [2] and 66.6% in data set [3].

B6: IgG2 full-length heavy chain with T394W/F405A (SEQ ID NO: 87) with light chain (SEQ ID NO: 61) (antibody)
heavy: QVQLQESGPGLVRPSQTLSLTCTVSGYSITSDHAWSWVRQPPGRGLEWIGYISYSGITTYNPSLKSRVTMLRDTSKNQFSLRLSSVTAADTAVYYCARSLARTTAMDYWGQGSLVTVSSASTKGPSVFPLAPCSRSTSESTAALGCLVKDYFPEPVTVSWNSGALTSGVHTFPAVLQSSGLYSLSSVVTVPSSNFGTQTYTCNVDHKPSNTKVDKTVERKCCVECPPCPAPPVAGPSVFLFPPKPKDTLMISRTPEVTCVVVDVSHEDPEVQFNWYVDGVEVHNAKTKPREEQFNSTFRVVSVLTVVHQDWLNGKEYKCKVSNKGLPAPIEKTISKTKGQPREPQVYTLPPSREEMTKNQVSLTCLVKGFYPSDIAVEWESNGQPENNYKTWPPMLDSDGSFALYSKLTVDKSRWQQGNVFSCSVMHEALHNHYTQKSLSLSP
light: not shown
B6: the “Homo full-length heavy chain (%)” value was found to be 58.9% in data set [2] and 66.7% in data set [3].

B7: VHH-Fc with K392D/D399K/K409D (SEQ ID NO: 588) (Fc fusion)
chain: EVQLVESGGGLVQPGGSLRLSCAASGSISSVDVMSWYRQAPGKQRELVAFITDRGRTNYKVSVKGRFTISRDNSKNMVYLQMNSLKPEDTADYLCRAESRTSWSSPSPLDVWGRGTQVTVSSDKTHTCPPCPAPELLGGPSVFLFPPKPKDTLMISRTPEVTCVVVDVSHEDPEVKFNWYVDGVEVHNAKTKPREEQYNSTYRVVSVLTVLHQDWLNGKEYKCKVSNKALPAPIEKTISKAKGQPREPQVYTLPPSREEMTKNQVSLTCLVKGFYPSDIAVEWESNGQPENNYDTTPPVLKSDGSFFLYSDLTVDKSRWQQGNVFSCSVMHEALHNHYTQKSLSLSP
For the molecule B7, the “Homo Fc fragment (%)” value in data set [4] came to 24.3%.

B8: VHH-Fc with T350V/L351Y/T366L/K392L/T394W/F405A/Y407V (SEQ ID NO: 593) (Fc fusion)
chain: EVQLVESGGGLVQPGGSLRLSCAASGSISSVDVMSWYRQAPGKQRELVAFITDRGRTNYKVSVKGRFTISRDNSKNMVYLQMNSLKPEDTADYLCRAESRTSWSSPSPLDVWGRGTQVTVSSDKTHTCPPCPAPELLGGPSVFLFPPKPKDTLMISRTPEVTCVVVDVSHEDPEVKFNWYVDGVEVHNAKTKPREEQYNSTYRVVSVLTVLHQDWLNGKEYKCKVSNKALPAPIEKTISKAKGQPREPQVYVYPPSREEMTKNQVSLLCLVKGFYPSDIAVEWESNGQPENNYLTWPPVLDSDGSFALVSKLTVDKSRWQQGNVFSCSVMHEALHNHYTQKSLSLSP
Take B8: the “Homo Fc fragment (%)” value in data set [4] amounted to 31.8%.

B9: VHH-Fc with E356K/K392D/D399K/K409D (SEQ ID NO: 591) (Fc fusion)
chain: EVQLVESGGGLVQPGGSLRLSCAASGSISSVDVMSWYRQAPGKQRELVAFITDRGRTNYKVSVKGRFTISRDNSKNMVYLQMNSLKPEDTADYLCRAESRTSWSSPSPLDVWGRGTQVTVSSDKTHTCPPCPAPELLGGPSVFLFPPKPKDTLMISRTPEVTCVVVDVSHEDPEVKFNWYVDGVEVHNAKTKPREEQYNSTYRVVSVLTVLHQDWLNGKEYKCKVSNKALPAPIEKTISKAKGQPREPQVYTLPPSRKEMTKNQVSLTCLVKGFYPSDIAVEWESNGQPENNYDTTPPVLKSDGSFFLYSDLTVDKSRWQQGNVFSCSVMHEALHNHYTQKSLSLSP
notes: also called VHH-Fc of Sample No. 310
As to B9, the “Homo Fc fragment (%)” value in data set [4] was 28.9%.

B10: VHH-Fc with E345R/Q347R/K360D/T366V/D399M/Y407A/K409V (SEQ ID NO: 590) (Fc fusion)
chain: EVQLVESGGGLVQPGGSLRLSCAASGSISSVDVMSWYRQAPGKQRELVAFITDRGRTNYKVSVKGRFTISRDNSKNMVYLQMNSLKPEDTADYLCRAESRTSWSSPSPLDVWGRGTQVTVSSDKTHTCPPCPAPELLGGPSVFLFPPKPKDTLMISRTPEVTCVVVDVSHEDPEVKFNWYVDGVEVHNAKTKPREEQYNSTYRVVSVLTVLHQDWLNGKEYKCKVSNKALPAPIEKTISKAKGQPRRPRVYTLPPSREEMTDNQVSLVCLVKGFYPSDIAVEWESNGQPENNYKTTPPVLMSDGSFFLASVLTVDKSRWQQGNVFSCSVMHEALHNHYTQKSLSLSP
notes: also called VHH-Fc of Sample No. 309
Take B10: in data set [4], the “Homo Fc fragment (%)” value was 32.3%.

B11: VHH-Fc with E345R/K360E/D399M/Y407A/K409V (SEQ ID NO: 592) (Fc fusion)
chain: EVQLVESGGGLVQPGGSLRLSCAASGSISSVDVMSWYRQAPGKQRELVAFITDRGRTNYKVSVKGRFTISRDNSKNMVYLQMNSLKPEDTADYLCRAESRTSWSSPSPLDVWGRGTQVTVSSDKTHTCPPCPAPELLGGPSVFLFPPKPKDTLMISRTPEVTCVVVDVSHEDPEVKFNWYVDGVEVHNAKTKPREEQYNSTYRVVSVLTVLHQDWLNGKEYKCKVSNKALPAPIEKTISKAKGQPRRPQVYTLPPSREEMTENQVSLTCLVKGFYPSDIAVEWESNGQPENNYKTTPPVLMSDGSFFLASVLTVDKSRWQQGNVFSCSVMHEALHNHYTQKSLSLSP
For the molecule B11, the “Homo Fc fragment (%)” value in data set [4] was 32.7%.

B12: VHH-Fc with Y349C/E357C/K392D/D399K (SEQ ID NO: 589) (Fc fusion)
chain: EVQLVESGGGLVQPGGSLRLSCAASGSISSVDVMSWYRQAPGKQRELVAFITDRGRTNYKVSVKGRFTISRDNSKNMVYLQMNSLKPEDTADYLCRAESRTSWSSPSPLDVWGRGTQVTVSSDKTHTCPPCPAPELLGGPSVFLFPPKPKDTLMISRTPEVTCVVVDVSHEDPEVKFNWYVDGVEVHNAKTKPREEQYNSTYRVVSVLTVLHQDWLNGKEYKCKVSNKALPAPIEKTISKAKGQPREPQVCTLPPSRECMTKNQVSLTCLVKGFYPSDIAVEWESNGQPENNYDTTPPVLKSDGSFFLYSKLTVDKSRWQQGNVFSCSVMHEALHNHYTQKSLSLSP
notes: also called VHH-Fc of Sample No. 308
As for B12, the “Homo Fc fragment (%)” value in data set [4] was determined as 8.6%.

These data come from US20260217835A1 (published 2026).
